{"source": "paper PMC8309402", "about": "“Evolutionary Implications of a Peroxidase with High Affinity for Cinnamyl Alcohols from Physcomitrium patens, a Non-Vascular Plant” (Plants, 2021)", "proteins": {"B1": {"name": "PpaPrx19 (Physcomitrium patens) (protein)", "chain": "TTDFYAKSCPRIHSIVKAEIKKAVNVEKRMAASLIRLHFHDCFVHGCDGSILLDSIPGMDSEKFAPPNDRSARGYEAIDAIKVALEKACPRTVSCADILAIAYRDSAVEVGLVPEYPVPFGRRDSLRAAPIAEVNLRLPGPDFDISTLKASFANQSLDERDLVALSGAHTIGRVRCQFVRLFLNDPGTNADFKKELARLCAPTVDAFTLQNLDLKTPDKFDNNYYKNLRRGEGIIRSDQVLWSSEGTHQKITKDFAENQENFFRQFIESSIKMGKIKPPPGSPSEIRLNCHQANPRPLIEQVVAVE", "notes": "native, purified from gametophores (ammonium sulfate, phenyl Sepharose, SP Sepharose); mature secreted protein, 332 aa precursor incl; 26 aa N-terminal signal peptide (predicted); 46 kDa lipase (XP_001755452) co-purified"}}, "key": {"purified protein [1]": {"substrate": "COc1cc(/C=C/CO)cc(OC)c1O", "assay": "purified protein", "type": "biochemical, Physcomitrium patens", "settings": "0.5 mM H2O2 (saturating), 50 mM sodium acetate pH 5.0, 1-110 μM substrate"}, "purified protein [2]": {"substrate": "COc1cc(/C=C/CO)ccc1O", "assay": "purified protein", "type": "biochemical, Physcomitrium patens", "settings": "0.5 mM H2O2 (saturating), 50 mM sodium acetate pH 5.0, 5-100 μM substrate"}}}
{"protein": "B1", "values": [{"measurement": "Km", "setting": "purified protein [1]", "value": 20.8, "unit": "µM"}, {"measurement": "kcat", "setting": "purified protein [1]", "value": 281, "unit": "s⁻¹"}, {"measurement": "kcat/Km", "setting": "purified protein [1]", "value": "1.35e+07", "unit": "M⁻¹ s⁻¹"}, {"measurement": "Km", "setting": "purified protein [2]", "value": 16.7, "unit": "µM"}, {"measurement": "kcat", "setting": "purified protein [2]", "value": 3940, "unit": "s⁻¹"}, {"measurement": "kcat/Km", "setting": "purified protein [2]", "value": "2.36e+08", "unit": "M⁻¹ s⁻¹"}]}
